Laboratory results: the DeepSol protein solubility set

Assay: soluble on expression in E. coli; label from the status in PepcDB or PDB records

Row | Sequence | soluble on expression in E. coli
1 | MASALRPPRVPKPKGVLPSHYYESFLEKKGPCDRDYKKFWAGLQGLTIYFYNSNRDFQHVEKLNLGAFEKLTDEIPWGSSRDPGTHFSLILRNQEIKFKVETLECREMWKGFILTVVELRVPTDLTLLPGHLYMMSEVLAKEEARRALETPSCFLKVSRLEAQLLLERYPECGNLLLRPSGDGADGVSVTTRQMHNGTHVVRHYKVKREGPKYVIDVEQPFSCTSLDAVVNYFVSHTKKALVPFLLDEDYEKVLGYVEADKENGENVWVAPSAPGPGPAPCTGGPKPLSPASSQDKLPPLPPLPNQEENYVTPIGDGPAVDYENQDVASSSWPVILKPKKLPKPPAKLPKPPVGPKPEPKVFNGGLGRKLPVSSAQPLFPTAGLADMTAELQKKLEKRRALEH | soluble
2 | MGSDKIHHHHHHMYVENACYQKAILPEHVGNALIESLPKKLTDEELVDKLANYPKCLTEDTQNDPEIRAEYLTRIKRLRQPQLVYFDVFRAVEIAIKDGYSAKNPLSPTTMNYLHYSLEDRPIIEPNTGFFKPKGCGITIIGESGVGKTSMLEQVLSIYPDVIKHQSYSGMSLPLTQVVWLKVDCPDDSSVKGLCHRILDEIDRKLDIKDTKPQNTIALLIKQIEAKMKSNYLGILVIDEMQNLNTAKAGGAERLLGFLHNLMNNLGIPILFCANPPFDKLLSKTLKAARRAESGGYFDIGLLKNSEDEWGLFVDELWKLQWTNVQTPLTQDLSDRLFNLSVGNMDLAVRIFYASQRAVIGSLNERITTDVLDKGASIAIRASKSTTDELRLSLLKRKNESKKETPNNEASEEAKVITESKGKFVTIPGDLSRPHHPEFAERITELQYEDDLHALIEDPALIQRASEEEHPLDMLKSAGLFCEDPLKTFG | not soluble
3 | MSLPAGPSMACQKGTSTWAKAERPRSAKGRSFRMARILLPFSATMGGSRLQWEGMAASHALKPILELLPEELPGEGYRRAQIAHWLYAKGARDFSEMTDLPKALREALAREWRLSEFSLVQAFPSQDGSVKYLFTLLDGKKTEAVYMPYENRKTVCLSTMVGCPAGCTFCATGALGFGRNLTAAEILDQLLTIAYHQGLSPREIRNVVLMGMGEPLLNLRNVLKAVRIMLHKKALALSPRRVTLSTVGIPKGIYRLAEEDLGVRLALSLHAPDDETRRKIIPTAHRYPIAEIMEAVRHYHAKTKRRVTFEYTLLKGVNDHLWQARLLAKLLKGLSAHVNLIPFNPWEGAPVVGTPRAGVLAFAEELKRLGVPTSIRWSRGQDVGAACGQLALKVPRPLTLTPLPGGAGR | soluble
4 | MGSDKIHHHHHHQEGRSDPLEGFNRTMFNFNYDVLDPYVVRPAAVAWRDYVPTPARNGLGNFFNNLEEPATMVNYFVEGKPYKAMIHFNRFFLNTLLGMGGLIDVASMANPKLAKEESRRFGSTLGNYGVGYGPYVVLPGYGSVTPREDGGGVADTLYPMLSYLTFWMSAGKWAIEGLETRAQLLDSDGLLRNSSDPYLMIREAYFQRHDFLASDGQIAPQQNPNAAAIEDSLDEIDSAK | not soluble
5 | MGSDKIHHHHHHMETPRREAFRYHEVEQHVLRLIDSKQYPPGSRLPSLRAVARTLSASLATVCHAYEELERRGVVESRPRSGYYVRTLPSPLPVPHSAPAEEEEPREANRSRLIATVLEAVGNPQMAPFGVVSPDPSLLPGKKLGQILAELSRRNAEQCVAYETIAGNAEYRRQIAKRACEDGMPTRASEVVATTGAMEALYIALRVLTRPGDNVLIQSPTYYCFLQLLETLGLRAVEIPSDPKHGINPADLTKALSTFEVAACILSGNFNNPDGALTPDAAKREIVDILAARGIPLVDDDVSADLHFDAQRPASFKQYDKKGLVVFCSSFSKTIAPGYRAGWMLPGRFMEKALEVKATTNVCCATPTQAAVGEFMRLGLYDRQLKKLRSAFQTQICAMHECIGSAFPDGTRVTSPRGGGVLWVELPAAVNGVELFFKARARRVGIAPGSIFSTRDRFSNYIRLSCCGIWNPRMEEALRDLGRLARELT | not soluble
6 | MEIQHLDGHIVKVQRDKVTWPGARLRKKDEGMPSLEDNNKKGMLVVTFDVEFPKTELSDEQKAQIIEILQQNTVKPKAYNGL | not soluble
